According to patent US20260232732A1 (FUNDACI INSTITUT DE RECERCA CONTRA LA LEUC MIA JOSEP …, published 2026):
Where no end group is shown, it is not given here.

Legend:
naked peptide FNFTDFYCEK = target: T1, naked peptide FNFTDFYCEK (human); assay: ELISA, naked peptide
T1 peptide: FNFTDFYCEK

naked peptide MEDYVNFNFT = target: T2, naked peptide MEDYVNFNFT (human); assay: ELISA, naked peptide
T2 peptide: MEDYVNFNFT

naked peptide TDFYCEKNNV = target: T3, naked peptide TDFYCEKNNV (human); assay: ELISA, naked peptide
T3 peptide: TDFYCEKNNV

naked peptide YVNFNFTDFY = target: T4, naked peptide YVNFNFTDFY (human); assay: ELISA, naked peptide
T4 peptide: YVNFNFTDFY

naked peptide KNNVRQFAS = target: T5, naked peptide KNNVRQFAS (human); assay: ELISA, naked peptide
T5 peptide: KNNVRQFAS

naked peptide DYGSESTSSM = target: T6, naked peptide DYGSESTSSM (human); assay: ELISA, naked peptide
T6 peptide: DYGSESTSSM

naked peptide SSMEDYVNFN = target: T7, naked peptide SSMEDYVNFN (human); assay: ELISA, naked peptide
T7 peptide: SSMEDYVNFN

naked peptide YCEKNNVRQF = target: T8, naked peptide YCEKNNVRQF (human); assay: ELISA, naked peptide
T8 peptide: YCEKNNVRQF

naked peptide SMEDYVNFNF = target: T9, naked peptide SMEDYVNFNF (human); assay: ELISA, naked peptide
T9 peptide: SMEDYVNFNF

naked peptide MTPTDFTSPI = target: T10, naked peptide MTPTDFTSPI (human); assay: ELISA, naked peptide
T10 peptide: MTPTDFTSPI

naked peptide SESTSSMEDY = target: T11, naked peptide SESTSSMEDY (human); assay: ELISA, naked peptide
T11 peptide: SESTSSMEDY

naked peptide TSPIPNMADD = target: T12, naked peptide TSPIPNMADD (human); assay: ELISA, naked peptide
T12 peptide: TSPIPNMADD

naked peptide TSSMEDYVNF = target: T13, naked peptide TSSMEDYVNF (human); assay: ELISA, naked peptide
T13 peptide: TSSMEDYVNF

naked peptide MADDYGSEST = target: T14, naked peptide MADDYGSEST (human); assay: ELISA, naked peptide
T14 peptide: MADDYGSEST

naked peptide IPNMADDYGS = target: T15, naked peptide IPNMADDYGS (human); assay: ELISA, naked peptide
T15 peptide: IPNMADDYGS

[1] = target: T16, Peptide 1, non-conjugated (MADDYGSEST-C) (human); assay: ELISA; Ab 0.03125 ug/mL; repII
T16 construct: With the extra C-terminal Cys
T16 peptide: MADDYGSESTC
Description: (§1) In brief, plates with each non-conjugated peptide (50 μg/mL) or BSA-conjugated peptide (5 μg/mL) were coated in 0.58M carbonate-bicarbonate buffer pH9.5, 100 μL/well, at 4° C. […] After washing, wells were incubated with the 3, 3′,5,5′-Tetramethylbenzidine (TMB) HRP substrate and reactions were stopped with 2M HCl and OD450 was recorded.

[2] = target: T17, antigen peptide-BSA (immunisation peptide #1 MADDYGSESTSSMEDYVNFNF-C conjugated to BSA) (human, extra C-terminal Cys conjugated to BSA); assay: ELISA; Ab 0.03125 ug/mL; repII
T17 construct: also called Positive control antigen peptide-BSA; MADDY peptide
T17 peptide: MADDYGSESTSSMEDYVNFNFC
Description: as §1

[3] = target: T18, BSA (negative control coating) (bovine, UniProt P02769 25-607); assay: ELISA; Ab 0.03125 ug/mL; repII
T18 construct: also called Negative control BSA
Description: as §1

[4] = target: T19, Peptide 3, non-conjugated (SSMEDYVNFN-C) (human); assay: ELISA; Ab 0.03125 ug/mL; repII
T19 construct: With the extra C-terminal Cys
T19 peptide: SSMEDYVNFNC
Description: as §1

[5] = target: T20, Peptide 2, non-conjugated (GSESTSSMED-C) (human); assay: ELISA; Ab 0.03125 ug/mL; repII
T20 construct: With the extra C-terminal Cys
T20 peptide: GSESTSSMEDC
Description: as §1

[6] = target: T21, Peptide 4, non-conjugated (SMEDYVNFNF-C) (human); assay: ELISA; Ab 0.03125 ug/mL; repII
T21 construct: With the extra C-terminal Cys
T21 peptide: SMEDYVNFNFC
Description: as §1

[7] = target: T22, Peptide 3-BSA (SSMEDYVNFN-C conjugated to BSA) (human); assay: ELISA; Ab 0.03125 ug/mL; repII
T22 peptide: SSMEDYVNFNC(BSA)
Description: as §1

[8] = target: T23, Peptide 1-BSA (MADDYGSEST-C conjugated to BSA) (human); assay: ELISA; Ab 0.03125 ug/mL; repII
T23 peptide: MADDYGSESTC(BSA)
Description: as §1

[9] = target: T24, Peptide 4-BSA (SMEDYVNFNF-C conjugated to BSA) (human); assay: ELISA; Ab 0.03125 ug/mL; repII
T24 peptide: SMEDYVNFNFC(BSA)
Description: as §1

[10] = target: T25, Peptide 2-BSA (GSESTSSMED-C conjugated to BSA) (human); assay: ELISA; Ab 0.03125 ug/mL; repII
T25 peptide: GSESTSSMEDC(BSA)
Description: as §1

[11] = target: T16, Peptide 1, non-conjugated (MADDYGSEST-C); assay: ELISA; Ab 0.25 ug/mL; repII
Description: as §1

[12] = target: T17, antigen peptide-BSA (immunisation …); assay: ELISA; Ab 0.25 ug/mL; repII
Description: as §1

[13] = target: T18, BSA (negative control coating); assay: ELISA; Ab 0.25 ug/mL; repII
Description: as §1

[14] = target: T19, Peptide 3, non-conjugated (SSMEDYVNFN-C); assay: ELISA; Ab 0.25 ug/mL; repII
Description: as §1

[15] = target: T20, Peptide 2, non-conjugated (GSESTSSMED-C); assay: ELISA; Ab 0.25 ug/mL; repII
Description: as §1

[16] = target: T21, Peptide 4, non-conjugated (SMEDYVNFNF-C); assay: ELISA; Ab 0.25 ug/mL; repII
Description: as §1

[17] = target: T22, Peptide 3-BSA (SSMEDYVNFN-C conjugated …); assay: ELISA; Ab 0.25 ug/mL; repII
Description: as §1

[18] = target: T23, Peptide 1-BSA (MADDYGSEST-C conjugated …); assay: ELISA; Ab 0.25 ug/mL; repII
Description: as §1

[19] = target: T24, Peptide 4-BSA (SMEDYVNFNF-C conjugated …); assay: ELISA; Ab 0.25 ug/mL; repII
Description: as §1

[20] = target: T25, Peptide 2-BSA (GSESTSSMED-C conjugated …); assay: ELISA; Ab 0.25 ug/mL; repII
Description: as §1

T18 sequence (P02769 25-607 limits assumed): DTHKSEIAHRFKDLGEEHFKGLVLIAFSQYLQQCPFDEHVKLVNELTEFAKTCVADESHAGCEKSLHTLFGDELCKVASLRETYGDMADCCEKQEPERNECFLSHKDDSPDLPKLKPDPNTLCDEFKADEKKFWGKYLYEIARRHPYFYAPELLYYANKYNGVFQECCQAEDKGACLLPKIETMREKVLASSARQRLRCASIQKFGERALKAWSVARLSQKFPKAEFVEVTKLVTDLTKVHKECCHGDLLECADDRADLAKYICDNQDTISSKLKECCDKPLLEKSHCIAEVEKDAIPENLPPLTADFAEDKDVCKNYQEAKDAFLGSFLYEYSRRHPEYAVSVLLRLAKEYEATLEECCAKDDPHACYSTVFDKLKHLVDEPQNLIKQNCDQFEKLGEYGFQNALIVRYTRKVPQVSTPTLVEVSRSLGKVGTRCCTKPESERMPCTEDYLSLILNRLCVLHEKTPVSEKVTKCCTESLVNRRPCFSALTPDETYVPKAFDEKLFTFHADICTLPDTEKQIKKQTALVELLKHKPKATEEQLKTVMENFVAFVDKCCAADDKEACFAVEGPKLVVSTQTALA

B1: Comparative antibody 1 (Comp-1) scFv, SEQ ID NO: 10 from WO2023/037125 A1, His-tagged (scFv)
scFv: QVQLKESGPGLVQPSQTLSLTCTVSGFSVASYDMHWVRLPPGKGLEWMGIIWANGNTHYNSGLKSRLSISRDTSKSQVFLKMNSLQTEDTAIYFCTRGGFAYWGQGTLVTVSSGGGGSGGGGSGGGGSGGGGSDVVMTQTPVSLSVSLGGQVSISCRSSQSLVHNNGNTYLSWYLQKPGQSPQLLIYKVSNRFSGVSDRFSGSGSGTDFTLKISRVEPDDLGVYYCGQGTQYPTFGGGTKLELKHHHHHH
- binding result (naked peptide FNFTDFYCEK): no binding (tested: 1 ug/mL)
- binding result (naked peptide MEDYVNFNFT): no binding (tested: 1 ug/mL)
- binding result (naked peptide TDFYCEKNNV): no binding (tested: 1 ug/mL)
- binding result (naked peptide YVNFNFTDFY): no binding (tested: 1 ug/mL)
- binding result (naked peptide KNNVRQFAS): no binding (tested: 1 ug/mL)
- binding result (naked peptide DYGSESTSSM): no binding (tested: 1 ug/mL)
- binding result (naked peptide SSMEDYVNFN): no binding (tested: 1 ug/mL)
- binding result (naked peptide YCEKNNVRQF): no binding (tested: 1 ug/mL)
- binding result (naked peptide SMEDYVNFNF): no binding (tested: 1 ug/mL)
- binding result (naked peptide MTPTDFTSPI): no binding (tested: 1 ug/mL)
- binding result (naked peptide SESTSSMEDY): no binding (tested: 1 ug/mL)
- binding result (naked peptide TSPIPNMADD): no binding (tested: 1 ug/mL)
- binding result (naked peptide TSSMEDYVNF): no binding (tested: 1 ug/mL)
- binding result (naked peptide MADDYGSEST): no binding (tested: 1 ug/mL)
- binding result (naked peptide IPNMADDYGS): no binding (tested: 1 ug/mL)

B2: anti-CCR9 antibody clone 115 (murine, from hybridoma #115) (antibody, V domains shown)
VH: QVQLKQSGPELVKPGTSVRVSCTASGYSFTDYIIYWVKQSHGRSLEWIGYIDPNNYNTRYSQKFKGKATLTVDKSSTSAFMHLNSLTSDDSAVYYCARDVYWGQGTTLTVSS
VL: DVVMTQTPLSLTVSLGDQASISCRSSQSLVHSNGKTYLQWYLQKPGQSPKLLIYKVSNRFSGVPDRFSGSGSGTDFTLKISRVEAEDLGVYFCAQSTHVWTFGGGTKLEIKR
notes: Mouse IgG1
- OD450 [1]: 0.01 OD
- OD450 [2]: 1.48 OD
- OD450 [3]: 0.01 OD
- OD450 [4]: 1.62 OD
- OD450 [5]: 0.01 OD
- OD450 [6]: 0.76 OD
- OD450 [7]: 1.57 OD
- OD450 [8]: 0.01 OD
- OD450 [9]: 1.53 OD
- OD450 [10]: 0.01 OD
- OD450 [11]: 0.02 OD
- OD450 [12]: 2.42 OD
- OD450 [13]: 0.02 OD
- OD450 [14]: 1.8 OD
- OD450 [15]: 0.01 OD
- OD450 [16]: 2.24 OD
- OD450 [17]: 2.05 OD
- OD450 [18]: 0.02 OD
- OD450 [19]: 2.53 OD
- OD450 [20]: 0.02 OD
